Common to all, as to settings: tags: HA tag (YPYDVPDYA) at C-terminus; label: biotin
Data set [1] deals with CXCR4-5-1 six-zinc finger peptide (synthetic construct). The data set is described as follows: fluorescence ELISA; 10 nM site, 50 uM ZnCl2, salmon sperm competitor, RT. As for the experimental part: (§1) DNA binding reactions contained the appropriate zinc finger peptide, biotinylated binding site (10 nM) and 5 μg competitor. DNA (sonicated salmon sperm DNA), in a total volume of 50 μl, which contained: 1×PBS (pH 7.0), 1.25×10⁻³ U high affinity anti-HA-Peroxidase antibody (Boehringer Mannheim), 50 μM ZnCl₂, 0.01 mg/ml BSA, and 0.5% Tween 20. Incubations are performed at room temperature for 40 minutes. Black streptavidin-coated wells are blocked with 4% marvel for 1 hour. Binding reactions are added to the streptavidin-coated wells and incubated for a further 40 minutes at room temperature. Wells are washed 5 times in 100 μl wash buffer (1×PBS (pH 7.0), 50 μM ZnCl₂, 0.01 mg/ml BSA, and 0.5% Tween 20), and finally 50 μl QuantaBlu peroxidase substrate solution (Pierce) is added to detect bound HA-tagged zinc finger peptide. ELISA signals are read in a SPECTRAmax GeminiXS spectrophotometer (Molecular Devices) and analysed using SOFTmax Pro 3.1.2 (Molecular Devices).
Chain of CXCR4-5-1 six-zinc finger peptide (synthetic construct) (chain, as listed by the source): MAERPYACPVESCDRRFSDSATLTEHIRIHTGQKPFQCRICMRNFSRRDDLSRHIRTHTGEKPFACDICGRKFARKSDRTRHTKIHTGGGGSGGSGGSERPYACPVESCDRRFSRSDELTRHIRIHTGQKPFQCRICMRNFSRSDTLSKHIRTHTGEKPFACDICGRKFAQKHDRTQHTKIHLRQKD
(§2) Zinc finger peptides are expressed using the T7 TNT Quick Coupled Transcription/Translation System for PCR templates (Promega) and assayed for DNA-binding by fluorescence ELISA (see above; FIG. 1). Binding is plotted vertically, on a relative scale. Sequences of the DNA target sites used in each binding reaction are shown below the figure. […]
Background: In an ELISA, binding on a coated surface is turned into a signal by an enzyme label.

Data set [2] has as its target CXCR4-10-1 six-zinc finger peptide (synthetic construct). The description is as above. As for the experimental part:
as §1, §2

Data set [3] concerns the target T1, TNFR1-7-9 six-zinc finger peptide (synthetic construct). As to the kind of experiment: fluorescence ELISA; control site; signal only in figure, text states specific binding. On the procedure:
as §1
(§3) Zinc finger peptides are expressed using the T7 TNT Quick Coupled Transcription/Translation System for PCR templates (Promega) and assayed for DNA-binding by fluorescence ELISA, as described above in Examples 4 and 6. Sequences of the DNA target sites used in each binding reaction are shown below FIG. 3A.

In data set [4] the target is TNFR1-9-12 six-zinc finger peptide (synthetic construct). The data set is described as above. As for the experimental part:
as §1, §3

In data set [5] the target is TNFR1-4-2 six-zinc finger peptide (synthetic construct). The data set is described as follows: fluorescence ELISA; 50 uM ZnCl2, RT. As for the experimental part:
as §1, §3

In data set [6] the target is T1, TNFR1-7-9 six-zinc finger peptide. The data set is described as follows: fluorescence ELISA; 50 uM ZnCl2, RT. On the procedure:
as §1, §3

T1 sequence (chain, as listed by the source): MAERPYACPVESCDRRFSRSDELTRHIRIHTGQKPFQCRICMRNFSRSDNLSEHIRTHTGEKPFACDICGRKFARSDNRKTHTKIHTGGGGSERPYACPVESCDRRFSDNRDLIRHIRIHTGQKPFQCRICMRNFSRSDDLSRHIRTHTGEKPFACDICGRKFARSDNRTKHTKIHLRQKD
Chain of TNFR1-4-2 six-zinc finger peptide (synthetic construct) (chain, as listed by the source): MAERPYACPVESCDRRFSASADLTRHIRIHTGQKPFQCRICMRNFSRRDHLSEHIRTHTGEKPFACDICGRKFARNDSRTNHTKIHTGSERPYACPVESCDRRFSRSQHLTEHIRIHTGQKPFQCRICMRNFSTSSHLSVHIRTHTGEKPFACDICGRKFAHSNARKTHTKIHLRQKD
Chain of TNFR1-9-12 six-zinc finger peptide (synthetic construct) (chain, as listed by the source): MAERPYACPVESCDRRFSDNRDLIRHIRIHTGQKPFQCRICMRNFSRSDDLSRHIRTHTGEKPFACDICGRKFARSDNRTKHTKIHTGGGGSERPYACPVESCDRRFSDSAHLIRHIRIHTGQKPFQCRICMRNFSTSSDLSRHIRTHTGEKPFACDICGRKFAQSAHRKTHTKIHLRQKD
Chain of CXCR4-10-1 six-zinc finger peptide (synthetic construct) (chain, as listed by the source): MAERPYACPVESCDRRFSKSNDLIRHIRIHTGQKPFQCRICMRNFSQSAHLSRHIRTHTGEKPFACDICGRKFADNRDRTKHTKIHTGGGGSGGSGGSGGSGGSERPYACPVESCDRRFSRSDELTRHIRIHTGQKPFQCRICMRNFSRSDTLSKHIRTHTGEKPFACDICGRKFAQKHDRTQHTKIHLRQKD

B1: CXCR4-5-1 target site (dsDNA)
DNA 1: CCGCCCCAGCGGCGCATGCGCCGCGCTCGGAGCGTGTT
DNA 2: AACACGCTCCGAGCGCGGCGCATGCGCCGCTGGGGCGG
In the case of B1, in data set [1], the binding result was “binds”.

B2: CXCR4-10-1 target site (dsDNA)
DNA 1: CCGCCCCAGCGGCGCATGCGCCGCGCTCGGAGCGTGTT
DNA 2: AACACGCTCCGAGCGCGGCGCATGCGCCGCTGGGGCGG
Take B2: the binding result in data set [2] is given as “binds”.

B3: TNFR1 site 4-2 (dsDNA)
DNA 1: GTCGGATTGGTGGGTTGGGGGCACAAGGCA
DNA 2: TGCCTTGTGCCCCCAACCCACCAATCCGAC
For B3, the binding result is “no binding” in data set [3], “no binding” in data set [4] and “binds” in data set [5].

B4: TNFR1 site 7-9 / 7-10 (dsDNA)
DNA 1: TGGAGGAGGAGGCCACAGGAGGCGGGAGGA
DNA 2: TCCTCCCGCCTCCTGTGGCCTCCTCCTCCA
On to B4, for which, in data set [6], the binding result is “binds”.

Values taken from patent US20040110923, “Nucleic acid binding polypeptides” (published 2004).
